Experimental data from US20220041738A1 (SAITAMA MEDICAL UNIVERSITY, published 2022).

Assays:
Assay in all cases: immunofluorescence on transfected, formalin-fixed C2C12 cells, IgG at 10 µg/mL, Alexa 594 anti-rat IgG
[1] = target: T1, human ALK2-G328W on cells (human, UniProt Q04771 21-509)
T1 sequence: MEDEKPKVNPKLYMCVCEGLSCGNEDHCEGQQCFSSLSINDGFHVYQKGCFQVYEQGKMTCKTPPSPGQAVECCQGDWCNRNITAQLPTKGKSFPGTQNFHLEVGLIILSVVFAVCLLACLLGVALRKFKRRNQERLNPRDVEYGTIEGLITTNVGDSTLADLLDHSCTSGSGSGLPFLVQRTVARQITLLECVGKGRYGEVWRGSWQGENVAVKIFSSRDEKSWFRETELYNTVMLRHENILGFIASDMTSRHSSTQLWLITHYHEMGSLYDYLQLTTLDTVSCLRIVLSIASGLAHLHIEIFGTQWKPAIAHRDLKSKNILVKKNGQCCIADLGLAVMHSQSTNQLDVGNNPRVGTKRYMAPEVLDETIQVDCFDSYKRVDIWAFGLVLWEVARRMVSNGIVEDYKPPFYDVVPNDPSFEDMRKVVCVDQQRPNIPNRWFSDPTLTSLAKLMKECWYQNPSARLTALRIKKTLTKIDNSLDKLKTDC
Summary of the method: (§1)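 C2C12 mouse myoblasts transfected overnight with human ALK2 cDNA (wild-type or FOP variants incl. G325A, pcDEF3 vector). Cells formalin-fixed, goat-serum blocked, stained 1 h RT with purified IgG at 10 µg/mL, then Alexa 594 anti-rat IgG 1 h; DAPI nuclei, fluorescence microscopy read-out.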

[2] = target: T2, human ALK2-Q207E on cells (human, UniProt Q04771 21-509)
T2 sequence: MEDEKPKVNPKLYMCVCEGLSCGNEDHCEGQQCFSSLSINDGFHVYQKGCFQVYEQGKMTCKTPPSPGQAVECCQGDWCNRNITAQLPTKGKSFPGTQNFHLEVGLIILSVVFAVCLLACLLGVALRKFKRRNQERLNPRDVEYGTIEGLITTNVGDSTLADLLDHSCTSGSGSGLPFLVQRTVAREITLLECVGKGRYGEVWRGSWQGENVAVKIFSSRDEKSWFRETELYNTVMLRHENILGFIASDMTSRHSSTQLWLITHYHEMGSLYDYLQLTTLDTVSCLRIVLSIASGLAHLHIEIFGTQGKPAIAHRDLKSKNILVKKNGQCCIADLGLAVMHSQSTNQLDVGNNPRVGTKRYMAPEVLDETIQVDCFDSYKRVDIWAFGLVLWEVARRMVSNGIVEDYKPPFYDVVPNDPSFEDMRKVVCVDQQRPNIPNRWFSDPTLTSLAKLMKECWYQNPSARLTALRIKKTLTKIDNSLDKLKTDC
Summary of the method: as §1

[3] = target: T3, human ALK2-P197_F198delinsL on cells (human, UniProt Q04771 21-509)
T3 construct: also called delP197_F198insL
T3 sequence: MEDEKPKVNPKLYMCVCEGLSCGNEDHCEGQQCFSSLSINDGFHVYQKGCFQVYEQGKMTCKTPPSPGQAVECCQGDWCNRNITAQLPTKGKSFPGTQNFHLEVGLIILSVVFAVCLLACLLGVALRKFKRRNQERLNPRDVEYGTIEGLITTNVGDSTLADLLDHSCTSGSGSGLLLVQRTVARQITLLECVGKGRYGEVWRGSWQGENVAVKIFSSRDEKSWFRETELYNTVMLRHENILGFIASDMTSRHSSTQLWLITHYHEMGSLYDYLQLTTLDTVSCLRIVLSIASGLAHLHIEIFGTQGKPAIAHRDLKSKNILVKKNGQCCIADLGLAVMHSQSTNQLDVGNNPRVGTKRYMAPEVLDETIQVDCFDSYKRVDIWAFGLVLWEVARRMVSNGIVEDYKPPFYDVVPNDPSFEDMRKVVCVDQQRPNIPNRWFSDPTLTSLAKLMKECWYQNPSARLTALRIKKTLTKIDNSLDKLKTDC
Summary of the method: as §1

[4] = target: T4, human ALK2-G328R on cells (human, UniProt Q04771 21-509)
T4 sequence: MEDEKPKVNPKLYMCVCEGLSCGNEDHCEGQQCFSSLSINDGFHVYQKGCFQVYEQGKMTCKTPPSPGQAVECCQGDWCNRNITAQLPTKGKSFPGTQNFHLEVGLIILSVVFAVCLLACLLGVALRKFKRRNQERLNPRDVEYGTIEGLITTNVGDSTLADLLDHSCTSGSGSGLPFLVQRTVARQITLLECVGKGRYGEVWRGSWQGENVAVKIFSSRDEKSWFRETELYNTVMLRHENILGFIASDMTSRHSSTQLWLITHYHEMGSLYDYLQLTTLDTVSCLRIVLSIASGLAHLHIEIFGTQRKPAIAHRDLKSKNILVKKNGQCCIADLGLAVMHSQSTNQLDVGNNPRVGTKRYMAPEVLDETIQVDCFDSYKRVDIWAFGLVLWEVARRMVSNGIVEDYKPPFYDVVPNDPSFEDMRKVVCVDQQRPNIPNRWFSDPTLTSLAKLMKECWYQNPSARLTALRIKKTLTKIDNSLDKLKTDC
Summary of the method: as §1

Measured: binding result

B1: rat anti-ALK2 monoclonal antibody A2-25C (antibody, V domains shown)
VH: EVQLVESGGGLVQPGGSLKLSCAASGFTFSYYAMSWVCQAPTKGLEWVASISRGGDNTYYRDTVKGRFTTSRDNAKNTLYLQMDSLRSEDTATYYCARLNYNNYFDYWGQGVMVTVSS
VL: DIQMTQSPASLSASLEEIVTITCQASQDIGNWLSWYQQKPGKSPQLLIYGATSLADGVPSRFSGSRSGTQYSLKISRLRVEDIGIYYCLQAYSAPFTFGSGTKLEIKR
notes: Rat monoclonal IgG from a hybridoma; also called 25C11
binds: all assays above

B2: rat anti-ALK2 monoclonal antibody A2-27D (antibody, V domains shown)
VH: EVQLVESGGGLVQPGRSLKLSCLASGSTFSNYGMKWIRQAPGKGLEWVASISRSSTYIYYADTVKGRFTISRDNARNTLYLQMTSLRSEDTALYYCAAAISTPFYWYFDFWGPGTVVTVSS
VL: EIVLTQSPTTMAASPGEKVTLNCLASSSVSYMTWYQQKSGASPKLWIYGTSNLASGVPNRFSGSGSGTSYSLAISSMEAEDVATYYCLHLTSYPPYTFGAGTKLELKR
notes: Rat monoclonal IgG from a hybridoma; also called 27D11
binds: all assays above
